Patent US12692291 (PALATIN TECHNOLOGIES, dated 2026)
Read-outs that look alike come from different tables or passages of the source. Bridges are numbered along the chain shown (N, C = ends). [ ]: non-standard residue; d: D form. dPhe(4-F) = N[C@H](Cc1ccc(F)cc1)C(=O)O; Nle = CCCC[C@H](N)C(=O)O

Key:
Experiment in all cases: cell-based or functional assay
[1] = target: T1, melanocortin receptor-3 (MC3r), recombinant on HEK-293 cells
[2] = target: T2, human melanocortin receptor-5 (MC5), on CHO-K1 cells, CEREP assay 1869 (human, UniProt P33032 1-325)
[3] = target: T3, melanocortin receptor-1 (MC1r), native on the human HBL cell line (human, UniProt Q01726 1-317)
[4] = target: melanocortin receptor-5 (MC5r), assay other than CEREP
[5] = target: T4, melanocortin receptor-4 (MC4r), recombinant on HEK-293 cells (human, UniProt P32245 1-332)
[6] = target: T5, melanocortin receptor-1 (MC1r), native on the mouse B16-F10 cell line (mouse, UniProt Q01727 1-315)
[7] = target: T1, melanocortin receptor-3 (MC3r), …; remark: listed apart in the source
[8] = target: T2, human melanocortin receptor-5 (MC5), on …; remark: listed apart in the source
[9] = target: T3, melanocortin receptor-1 (MC1r), native …; remark: listed apart in the source
[10] = target: melanocortin receptor-5 (MC5r), assay other than CEREP; remark: listed apart in the source
[11] = target: T4, melanocortin receptor-4 (MC4r), …; remark: listed apart in the source
[12] = target: T5, melanocortin receptor-1 (MC1r), native …; remark: listed apart in the source

T3 sequence (Q01726 whole entry): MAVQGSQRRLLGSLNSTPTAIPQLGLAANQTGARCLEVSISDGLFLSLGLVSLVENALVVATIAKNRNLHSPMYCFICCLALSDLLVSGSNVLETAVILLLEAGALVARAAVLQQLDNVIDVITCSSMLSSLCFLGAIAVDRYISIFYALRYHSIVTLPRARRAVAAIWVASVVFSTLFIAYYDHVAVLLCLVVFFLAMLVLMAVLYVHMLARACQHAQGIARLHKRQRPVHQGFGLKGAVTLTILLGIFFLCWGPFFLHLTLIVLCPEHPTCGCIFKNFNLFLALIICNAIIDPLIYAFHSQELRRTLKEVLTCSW
T2 sequence (P33032 whole entry): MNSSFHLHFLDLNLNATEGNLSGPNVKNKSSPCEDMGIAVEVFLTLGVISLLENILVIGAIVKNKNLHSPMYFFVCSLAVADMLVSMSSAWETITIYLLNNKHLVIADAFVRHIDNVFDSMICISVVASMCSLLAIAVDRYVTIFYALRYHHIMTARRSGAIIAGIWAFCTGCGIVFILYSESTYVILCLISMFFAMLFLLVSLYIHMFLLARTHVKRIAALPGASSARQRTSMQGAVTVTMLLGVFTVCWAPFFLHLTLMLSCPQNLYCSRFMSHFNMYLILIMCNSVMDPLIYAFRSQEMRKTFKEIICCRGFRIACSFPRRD
melanocortin receptor-5 (MC5r), assay other than CEREP, sequence (P33032 whole entry): as above
T5 sequence (Q01727 whole entry): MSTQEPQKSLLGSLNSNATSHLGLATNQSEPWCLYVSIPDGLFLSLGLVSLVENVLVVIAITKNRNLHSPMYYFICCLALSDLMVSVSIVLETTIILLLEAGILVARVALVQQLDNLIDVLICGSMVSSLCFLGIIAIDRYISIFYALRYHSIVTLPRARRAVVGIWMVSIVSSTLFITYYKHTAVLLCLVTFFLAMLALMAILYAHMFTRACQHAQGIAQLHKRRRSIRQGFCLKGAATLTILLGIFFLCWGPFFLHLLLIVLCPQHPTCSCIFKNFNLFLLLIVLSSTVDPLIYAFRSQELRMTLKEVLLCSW
T4 sequence (P32245 whole entry): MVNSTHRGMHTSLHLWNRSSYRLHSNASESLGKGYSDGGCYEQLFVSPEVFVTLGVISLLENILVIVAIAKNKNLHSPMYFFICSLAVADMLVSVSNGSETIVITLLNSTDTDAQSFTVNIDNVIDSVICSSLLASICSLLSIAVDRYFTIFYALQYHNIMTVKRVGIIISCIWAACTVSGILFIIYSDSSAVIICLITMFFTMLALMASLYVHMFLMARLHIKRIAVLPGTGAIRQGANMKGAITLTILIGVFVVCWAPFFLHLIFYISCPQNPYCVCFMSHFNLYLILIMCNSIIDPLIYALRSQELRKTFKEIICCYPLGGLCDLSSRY
T1 sequence (P41968 whole entry): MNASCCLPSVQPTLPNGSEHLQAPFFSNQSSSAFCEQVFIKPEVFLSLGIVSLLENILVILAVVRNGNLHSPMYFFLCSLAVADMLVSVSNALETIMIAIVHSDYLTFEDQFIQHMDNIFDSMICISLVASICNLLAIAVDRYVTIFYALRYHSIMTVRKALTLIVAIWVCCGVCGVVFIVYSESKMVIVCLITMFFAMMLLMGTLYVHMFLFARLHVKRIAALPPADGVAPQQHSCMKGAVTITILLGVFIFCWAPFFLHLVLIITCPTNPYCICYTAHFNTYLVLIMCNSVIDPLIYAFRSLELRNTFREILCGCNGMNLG

B1: Peptide No. 60, Ac-Nle-cyclo(Glu-His-D-Phe(4-F)-Arg-Trp-NH-(CH2)4-NH) (peptide)
peptide: Ac-[Nle]EH[dPhe(4-F)]RW
modifications: bridge 2-C; not fully specified (C-terminus, bridges); printed as Ac-Nle-cyclo(Glu-His-D-Phe(4-F)-Arg-Trp-NH-(CH2)4-NH)
EC50 (nM), cAMP accumulation [1]: 0.77 nM
Fold Peptide No. 60 More Potent Than Bremelanotide (ratio of EC50 values) [1]: 4 fold
EC50 (nM), cAMP production, HTRF, CEREP [2]: 0.39 nM
Fold Peptide No. 60 More Potent Than Bremelanotide (ratio of EC50 values, CEREP) [2]: > 25000 fold
EC50 (nM), cAMP accumulation [3]: 0.13 nM
Fold Peptide No. 60 More Potent Than Bremelanotide (ratio of EC50 values) [3]: 0.78 fold
EC50 [4]: 0.15 nM
Fold Peptide No. 60 More Potent Than Bremelanotide (ratio of EC50 values) [4]: 22500 fold
EC50 (nM), cAMP accumulation [5]: 2 nM
Fold Peptide No. 60 More Potent Than Bremelanotide (ratio of EC50 values) [5]: 0.5 fold
EC50 (nM), cAMP accumulation [6]: 0.02 nM
Fold Peptide No. 60 More Potent Than Bremelanotide (ratio of EC50 values) [6]: 5 fold
EC50 (nM), cAMP accumulation [7]: 0.77 nM
Fold Peptide No. 60 More Potent Than α-MSH (ratio of EC50 values) [7]: 3.9 fold
EC50 (nM), cAMP production, HTRF, CEREP [8]: 0.39 nM
Fold Peptide No. 60 More Potent Than α-MSH (ratio of EC50 values, CEREP) [8]: 930 fold
EC50 (nM), cAMP accumulation [9]: 0.13 nM
Fold Peptide No. 60 More Potent Than α-MSH (ratio of EC50 values) [9]: 69 fold
EC50 [10]: 0.15 nM
Fold Peptide No. 60 More Potent Than α-MSH (ratio of EC50 values) [10]: 686 fold
EC50 (nM), cAMP accumulation [11]: 2 nM
Fold Peptide No. 60 More Potent Than α-MSH (ratio of EC50 values) [11]: 1.5 fold
EC50 (nM), cAMP accumulation [12]: 0.02 nM
Fold Peptide No. 60 More Potent Than α-MSH (ratio of EC50 values) [12]: 11 fold
